Data: paper PMC5772552

Columns and labels:
Experiment in all cases: ELISA; semi-quantitative; plate coated with 30 nM protein (GST-tagged cohesin) in 0.1 M Na2CO3 pH 9.6 at 4 °C; His6-tagged dockerin 10 pM-1 μM in TBS with 1 mM CaCl2 and 1% BSA, 1 h, room temperature; anti-6xHis and HRP secondary antibody; fit with Hill equation
[1] = molecular target: GST-Coh1 (from plasmid pGEX-Coh1) (Clostridium thermocellum)
[2] = molecular target: BSA (bovine (from the name BSA)) (UniProt P02769)
[3] = molecular target: GST-Cohwt (from plasmid pGEX-Cohwt) (Clostridium thermocellum) (UniProt Q06851)

UniProt P02769, sequence (P02769 25-607): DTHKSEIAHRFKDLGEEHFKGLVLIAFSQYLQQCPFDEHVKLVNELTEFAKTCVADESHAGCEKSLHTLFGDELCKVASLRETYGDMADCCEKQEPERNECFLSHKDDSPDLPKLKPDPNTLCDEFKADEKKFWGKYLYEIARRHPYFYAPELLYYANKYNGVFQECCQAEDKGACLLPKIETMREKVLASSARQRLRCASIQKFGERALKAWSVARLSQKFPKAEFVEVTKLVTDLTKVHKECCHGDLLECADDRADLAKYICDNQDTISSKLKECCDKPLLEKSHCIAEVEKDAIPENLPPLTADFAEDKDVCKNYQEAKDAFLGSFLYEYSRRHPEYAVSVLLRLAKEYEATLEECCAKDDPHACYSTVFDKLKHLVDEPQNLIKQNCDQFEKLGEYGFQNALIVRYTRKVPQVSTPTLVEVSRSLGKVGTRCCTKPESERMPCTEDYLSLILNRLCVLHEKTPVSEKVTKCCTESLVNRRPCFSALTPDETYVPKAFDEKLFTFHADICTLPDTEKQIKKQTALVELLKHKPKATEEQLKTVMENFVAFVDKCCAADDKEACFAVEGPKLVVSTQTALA

Kd [1]: > 500 nM
Kd [2]: > 1000 nM
Kd [3]: 0.77 nM
Substance: MBP-X6b-Docwt-His6 (from plasmid pMAL-Docwt) (from UniProt P51584 733-791) (domain or fragment)
